Article PMC10397247
Blank lines part the entries; values can stand above or below the binder they belong to.

What was measured:
[1] = target: T1, 4H2274-AA; test: two-hybrid library CCmax; details: mean of both orientations;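 also: natural log of median RNA to DNA barcode read ratio; higher means stronger binding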
T1 chain: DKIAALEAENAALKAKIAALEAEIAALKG

[2] = target: T2, 4H3009-AA; test: two-hybrid library CCmax; details: mean of both orientations;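 also: natural log of median RNA to DNA barcode read ratio; higher means stronger binding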
T2 chain: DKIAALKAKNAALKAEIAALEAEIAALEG

[3] = target: T3, 4H2438-AA; test: two-hybrid library CCmax; details: mean of both orientations;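 also: natural log of median RNA to DNA barcode read ratio; higher means stronger binding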
T3 chain: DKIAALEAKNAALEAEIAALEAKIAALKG

[4] = target: T4, 4H2698-AA; test: two-hybrid library CCmax; details: mean of both orientations;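 also: natural log of median RNA to DNA barcode read ratio; higher means stronger binding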
T4 chain: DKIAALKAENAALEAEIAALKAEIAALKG

[5] = target: T5, 4H174-AA; test: two-hybrid library CCmax; details: mean of both orientations;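 also: natural log of median RNA to DNA barcode read ratio; higher means stronger binding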
T5 chain: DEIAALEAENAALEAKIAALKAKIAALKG

[6] = target: T6, 4H745-AA; test: two-hybrid library CCmax; details: mean of both orientations;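 also: natural log of median RNA to DNA barcode read ratio; higher means stronger binding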
T6 chain: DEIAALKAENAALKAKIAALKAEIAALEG

[7] = target: T7, 4H1626-AA; test: two-hybrid library CCmax; details: mean of both orientations
T7 chain: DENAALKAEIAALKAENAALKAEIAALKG

[8] = target: T8, 4H2253-AA; test: two-hybrid library CCmax; details: mean of both orientations
T8 chain: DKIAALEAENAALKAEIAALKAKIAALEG

[9] = target: T9, 4H2330-AA; test: two-hybrid library CCmax; details: mean of both orientations
T9 chain: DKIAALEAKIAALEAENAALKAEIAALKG

[10] = target: T10, 4H3165-AA; test: two-hybrid library CCmax; details: mean of both orientations
T10 chain: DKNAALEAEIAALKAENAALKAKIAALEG

[11] = target: T11, 4H310-AA; test: two-hybrid library CCmax; details: mean of both orientations
T11 chain: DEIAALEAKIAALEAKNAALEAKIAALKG

[12] = target: T12, 4H629-AA; test: two-hybrid library CCmax; details: mean of both orientations
T12 chain: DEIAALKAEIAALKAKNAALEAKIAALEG

[13] = target: T13, 4H3120-AA; test: two-hybrid library CCmax; details: mean of both orientations
T13 chain: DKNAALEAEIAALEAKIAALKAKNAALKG

[14] = target: T14, 4H485-AA; test: two-hybrid library CCmax; details: mean of both orientations
T14 chain: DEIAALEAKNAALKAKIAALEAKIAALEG

[15] = target: T15, 4H1597-AA; test: two-hybrid library CCmax; details: mean of both orientations
T15 chain: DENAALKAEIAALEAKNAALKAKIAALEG

[16] = target: T16, 4H458-AA; test: two-hybrid library CCmax; details: mean of both orientations
T16 chain: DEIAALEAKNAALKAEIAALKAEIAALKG

[17] = target: T17, 4H1877-AA; test: two-hybrid library CCmax; details: mean of both orientations
T17 chain: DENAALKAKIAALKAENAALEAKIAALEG

[18] = target: T18, 4H570-AA; test: two-hybrid library CCmax; details: mean of both orientations
T18 chain: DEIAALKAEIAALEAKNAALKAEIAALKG

[19] = target: T19, 4H2865-AA; test: two-hybrid library CCmax; details: mean of both orientations
T19 chain: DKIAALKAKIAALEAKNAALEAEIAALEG

[20] = target: T20, 4H710-AA; test: two-hybrid library CCmax
T20 chain: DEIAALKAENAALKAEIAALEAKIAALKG

[21] = target: T21, 4H1864-AA; test: two-hybrid library CCmax; details: mean of both orientations
T21 chain: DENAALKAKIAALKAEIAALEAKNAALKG

[22] = target: T22, 4H94-AA; test: two-hybrid library CCmax; details: mean of both orientations
T22 chain: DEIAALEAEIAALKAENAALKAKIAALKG

[23] = target: T23, 4H2109-AA; test: two-hybrid library CCmax; details: mean of both orientations
T23 chain: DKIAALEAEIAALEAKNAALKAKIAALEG

[24] = target: T24, 4H930-AA; test: two-hybrid library CCmax; details: mean of both orientations
T24 chain: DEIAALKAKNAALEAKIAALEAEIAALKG

[25] = target: T25, 4H3016-AA; test: two-hybrid library CCmax; details: mean of both orientations
T25 chain: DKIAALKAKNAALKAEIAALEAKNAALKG

[26] = target: T26, 4H909-AA; test: two-hybrid library CCmax; details: mean of both orientations
T26 chain: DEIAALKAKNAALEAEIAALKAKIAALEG

[27] = target: T27, 4H891-AA; test: two-hybrid library CCmax; details: mean of both orientations
T27 chain: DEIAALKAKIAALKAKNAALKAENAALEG

[28] = target: T28, 4H1478-AA; test: two-hybrid library CCmax
T28 chain: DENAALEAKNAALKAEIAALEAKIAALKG

[29] = target: T29, 4H3590-AA; test: two-hybrid library CCmax; details: mean of both orientations
T29 chain: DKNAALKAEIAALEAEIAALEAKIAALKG

[30] = target: T30, 4H3697-AA; test: two-hybrid library CCmax; details: mean of both orientations
T30 chain: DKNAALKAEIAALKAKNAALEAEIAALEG

[31] = target: T31, 4H3395-AA; test: two-hybrid library CCmax; details: mean of both orientations
T31 chain: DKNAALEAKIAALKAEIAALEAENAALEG

[32] = target: T32, 4H3130-AA; test: two-hybrid library CCmax; details: mean of both orientations
T32 chain: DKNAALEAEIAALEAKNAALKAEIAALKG

[33] = target: T33, 4H3865-AA; test: two-hybrid library CCmax; details: mean of both orientations
T33 chain: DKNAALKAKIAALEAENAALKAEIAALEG

[34] = target: T34, 4H2162-AA; test: two-hybrid library CCmax; details: mean of both orientations
T34 chain: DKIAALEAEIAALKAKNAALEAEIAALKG

[35] = target: T35, 4H2649-AA; test: two-hybrid library CCmax; details: mean of both orientations
T35 chain: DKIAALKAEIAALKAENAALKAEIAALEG

[36] = target: T36, 4H171-AA; test: two-hybrid library CCmax; details: mean of both orientations
T36 chain: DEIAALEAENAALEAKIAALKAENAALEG

[37] = target: T37, 4H1842-AA; test: two-hybrid library CCmax; details: mean of both orientations
T37 chain: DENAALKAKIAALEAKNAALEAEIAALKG

[38] = target: T38, 4H797-AA; test: two-hybrid library CCmax; details: mean of both orientations
T38 chain: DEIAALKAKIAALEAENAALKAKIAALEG

[39] = target: T39, 4H3753-AA; test: two-hybrid library CCmax; details: mean of both orientations
T39 chain: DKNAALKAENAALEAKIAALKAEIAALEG

[40] = target: T40, 4H3381-AA; test: two-hybrid library CCmax; details: mean of both orientations
T40 chain: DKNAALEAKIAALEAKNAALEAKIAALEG

[41] = target: T41, 4H1579-AA; test: two-hybrid library CCmax; details: mean of both orientations
T41 chain: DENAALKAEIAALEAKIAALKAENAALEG

[42] = target: T42, 4H3410-AA; test: two-hybrid library CCmax; details: mean of both orientations
T42 chain: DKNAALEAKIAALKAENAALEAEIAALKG

[43] = target: T43, 4H2473-AA; test: two-hybrid library CCmax; details: mean of both orientations
T43 chain: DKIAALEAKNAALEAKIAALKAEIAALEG

[44] = target: T44, 4H536-AA; test: two-hybrid library CCmax; details: mean of both orientations
T44 chain: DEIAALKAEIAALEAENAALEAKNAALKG

[45] = target: T45, 4H2389-AA; test: two-hybrid library CCmax; details: mean of both orientations
T45 chain: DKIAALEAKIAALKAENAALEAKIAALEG

[46] = target: T46, 4H2725-AA; test: two-hybrid library CCmax; details: mean of both orientations
T46 chain: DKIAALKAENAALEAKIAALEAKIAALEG

[47] = target: T47, 4H850-AA; test: two-hybrid library CCmax; details: mean of both orientations
T47 chain: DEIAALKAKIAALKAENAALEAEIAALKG

[48] = target: T48, 4H3129-bA; test: two-hybrid library CCNG1
T48 chain: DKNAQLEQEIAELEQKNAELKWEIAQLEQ

[49] = target: T49, 4H570-bA; test: two-hybrid library CCNG1
T49 chain: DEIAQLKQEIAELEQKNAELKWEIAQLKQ

[50] = target: T50, 4H3638-bA; test: two-hybrid library CCNG1
T50 chain: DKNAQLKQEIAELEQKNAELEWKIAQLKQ

[51] = target: T51, 4H3817-bA; test: two-hybrid library CCNG1
T51 chain: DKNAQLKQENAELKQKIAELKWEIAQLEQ

[52] = target: T52, 4H3631-bA; test: two-hybrid library CCNG1
T52 chain: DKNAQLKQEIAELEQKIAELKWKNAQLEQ

[53] = target: T53, 4H906-bA; test: two-hybrid library CCNG1
T53 chain: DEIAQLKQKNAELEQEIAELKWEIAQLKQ

[54] = target: T54, 4H3974-bA; test: two-hybrid library CCNG1
T54 chain: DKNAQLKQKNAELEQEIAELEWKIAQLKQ

[55] = target: T55, 4H584-bA; test: two-hybrid library CCNG1
T55 chain: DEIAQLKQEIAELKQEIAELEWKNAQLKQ

[56] = target: T56, 4H850-bA; test: two-hybrid library CCNG1
T56 chain: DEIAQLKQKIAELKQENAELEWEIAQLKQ

[57] = target: T57, 4H3172-bA; test: two-hybrid library CCNG1
T57 chain: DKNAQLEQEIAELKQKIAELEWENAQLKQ

[58] = target: T58, 4H3414-bA; test: two-hybrid library CCNG1
T58 chain: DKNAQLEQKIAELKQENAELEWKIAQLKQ

[59] = target: T59, P11A; test: two-hybrid library CCNG1
T59 chain: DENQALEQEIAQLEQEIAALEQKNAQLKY

[60] = target: T60, 4H619-bA; test: two-hybrid library CCNG1
T60 chain: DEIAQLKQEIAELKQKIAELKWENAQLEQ

interaction score [1]: -0.761 | interaction score [2]: 0.472 | interaction score [3]: -0.717 | interaction score [4]: 1.64 | interaction score [5]: 1.4 | interaction score [6]: 2.14 | interaction score [7]: -1.52 | interaction score [8]: -0.889 | interaction score [9]: -1.56 | interaction score [10]: -1.68 | interaction score [11]: -0.927 | interaction score [12]: -1.23 | interaction score [13]: -0.624 | interaction score [14]: -0.796 | interaction score [15]: -0.494 | interaction score [16]: -0.241 | interaction score [17]: -0.558 | interaction score [18]: -1.51 | interaction score [19]: -1.39 | interaction score [20]: -0.15 | interaction score [21]: 1.68 | interaction score [22]: -1.45 | interaction score [23]: -0.882 | interaction score [24]: -0.754 | interaction score [25]: -1.29 | interaction score [26]: -0.497 | interaction score [27]: -1.45 | interaction score [28]: 0.0991 | interaction score [29]: 0.946 | interaction score [30]: -1.54 | interaction score [31]: 1.1 | interaction score [32]: -0.211 | interaction score [33]: -1.31 | interaction score [34]: -1.13 | interaction score [35]: -1.48 | interaction score [36]: 0.9 | interaction score [37]: -1.06 | interaction score [38]: -1.28 | interaction score [39]: 2.25 | interaction score [40]: -1.47 | interaction score [41]: -0.103 | interaction score [42]: -1 | interaction score [43]: 2.04 | interaction score [44]: -1.16 | interaction score [45]: 0.0289 | interaction score [46]: 1.78 | interaction score [47]: 0.0104
Binder: DENAALEAKNAALKAEIAALEAKIAALKG [4H1478-AA]

interaction score [48]: -0.78 | interaction score [49]: -1.13 | interaction score [50]: 0 | interaction score [51]: -0.661 | interaction score [52]: -0.762 | interaction score [53]: -0.839 | interaction score [54]: -0.932 | interaction score [55]: -1.75 | interaction score [56]: 0.0228 | interaction score [57]: -1.38 | interaction score [58]: 2.61 | interaction score [59]: 0.0953 | interaction score [60]: -1.59
Binder: DKNAQLEQEIAELEQKNAELKWEIAQLEQ [4H3129-bA]
